Experiment: yeast display, Sf9 membrane polyspecificity reagent, FACS + sequencing; frameworks hold sequencing errors
Procedure, shortened: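 After 36–48 hours of galactose induction, yeast (Saccharomyces cerevisiae BJ5465) displaying a synthetic nanobody library were stained at 4 °C for 1 hour with 10% biotinylated, detergent-solubilized Sf9 membrane reagent. Streptavidin microbeads enriched the stained cells before FACS sorting into low and high (top ~1%) gates on anti-HA and streptavidin fluorescence. Each clone's polyreactivity label reflects its gate of origin.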

Sequence	polyreactivity (PSR sort gate)
QVQLVDSGGGLVQAGGILRLSCAASGRTFWIYAMGWYRQAPGKERQLVAAITGSGGSTYYADSVKGRFTISRDNAKNTGYLQMICLKPEDTAVYYCNARVPDCYKWSAYYSHDYWGQGTQVTVSS	low polyreactivity
QVQLVESGGGLVQAGVSLRLSCAASGNIFRAYAMGWYRQAPGKERELVAAIDTTGGRTYYADSVKGRFTISRDNAKITVYLLMKSLKPEDTAVYYCAVRAPAYPYYRGFDYWGQGSQVTVSS	low polyreactivity
QVQLVESGGCLVQAGGSLRLSFAASGSTLPYYSMGWYRHAPGKERELVAAITSSGGDTYYADSVKGRFTISRDIAKNTVYLQMNSLKPEDTAVYYCAKSFSARSTVRKLFYFAYDYWGQGTQVTVSS	low polyreactivity
QVQLVESWGGLVQAGGSLRLSCPASGYIIQTYAMGWYRQAPGKEREFLAAMTSGAGRTSYADSVKGRFTISRDNAKNTVYLQLHRLKPEDTAVYFCAARWRYQLSGSRLSYGKYDYWGQGTQVTVSS	high polyreactivity
QVQLVESGGGLVQAGGSLRLSCAASGRIFTGYAMGWYRQAPGKERELVAAISSRGGSTYYADSVKGRFTISRDNAKNTVYLQMNSLKPEDTAVYYCNAYQWRHRYTMYYWGQGTQVTVSS	high polyreactivity
QVQLVESGGGLVQAGGSLRLSCAASGRIFYFYVMGWYRQAPGKERELVAGISDGSTNYADSVKGRFTISRDNAKNTVYLQMNSLKPEDTAVYYCAKDPLVIRFVQGRFGYDYWGQGTQVTVSS	low polyreactivity
QVQLVESGGGLVQAGGSLRLSCAASGSIFYYYVMGWYIQAPGKERELVAAISSGGGTNYADSVKGRFTISRDNAKNSVYLQMNSLNPEDTAVYYGAKASAYGLANDYDYWGQGTQVTVSS	low polyreactivity
QVQLVESGGGLVQAGGSLLLSCAGTARNFTYNAMGWYRQAPGKERELVARITSGGNTNYADSVKGRFTISRDNAKNTVYLQMNSLKPEDTAVYYGATGLFWFTNRYGSWGQGTQVTVSS	low polyreactivity
QVQLVESGGGLVQAGGSLRLSCAASGSTYRDYAKGWYRQAPGKERELVASITSGSSTYYADSLKGRFTMSRDNAKNTVYLQMNSLKPEDTAVYYCATGRQYDLHRLRHDYWGQGTQVTVSS	low polyreactivity
QVQLVESGGGLVQGGGSLRLSCAASGRTFYGYAMGWYRQAPGKERELVAAITRSGGSTYYADSVKGRFTISRDNAKKTVYLQMNILKPVDTAVYYCAAGGQARHDYWGQGTQVTVSS	low polyreactivity
QVQLVESGGGLGQAGGSLRLSCAASGSIFPAYAMGCYRQAPGKERELVAAITFSGGSTYYADSVKGRFTISRDNAKNTVYLQMNSLKPEDTAVYYCATDSYGWRFNRAITSYGGDYWGQGTQVTVSS	low polyreactivity
QVQLVESGGGLVQAGGSLRLSCAASGIIFKVNDMGWYRQAHGKEREFVAAITYSGDGTFYADSVKGRFTISRDNAKNTVYLQMNSLKPEDTAVYYCAADLPESPESYYDTDDYWGQGPQVTVSS	low polyreactivity
QVQLVESGGGLVQAGGSLRLSCAASGRTFSIYAMGWYRQAPGKERELVAAISNGGRTKYADSVKGRFTISRDNAKNTVYLQMNSLKPEDTAVYYCAASRPRPPSSRRMDYWGQGTQVTVSS	high polyreactivity
QVQLVESGGGLVHAGGSLRLSCAASGSTSGIYAMGWYRQAPGKERELVAAIDTSGGSTYADSLKGRFTISRDNAKYTVYLQMNSLKPEDTAGYYCAKPFSSNSWSHGYWGQGTQVTVSS	low polyreactivity
QVHLVESGGCLVQSGGSLRLSCAASGSTFPSYAKGWYRQAPGKERELVAAINSGGGTNYADSVKGRFTISRDNAKNTVYLQMNILKPEDTAVYYCAADVWKLYAYWGQGTQVTVSS	low polyreactivity
QVQLVDSGGGLVQAGGSLRLSCAASGGTFQGNAMGWYRQAPGKEREFVATITRGGGSKYYADSVKGRFTISRDNAKNTVYLQMNSLKPEDTAVYFCNAYLVSRYPGDYWGQGTQVTVSP	high polyreactivity
QVQLVESGGGLVQAGGSLRLSCAASGSIFEKYAMGWYRQAPGKERELVAAISRGTNTKYADSVKGRFTISRDNAKNTVYLQMNSLKPEDTAVYNGAARYNTYRTRIYSMDYWGQGTQVTVSS	high polyreactivity
QVQLVESGGGLVQAGGSLRLSCAASGFTLGFYAMGWYIQAPGKERELVAAINWRGGSTYYADSVKGRFTISRDNAKNTVYLQMNSLKPEDTAVYYCNAGFNTGGYGYWGQGTQVTVSS	high polyreactivity
QGQLVESWGGLVQAGGSLRLSCAASGSTFVFNAMGWYRQAPGKERELVAAISIDGSTNYADSVKGRFTISRDNAKNTVYLQMNSLEPEDTAVYYCNAKRYGFFYWQGDYWGQGTQVTVSS	low polyreactivity
QVQLVESGGGLVQAGGSLRLSCAATGRIFYRNAMGWYRQAPGKERELVAAIRGSGGRTYYADSVKGRFTISRDNAKNTVYLQMNSLKPEDTAVYYCAAYGYYVEHPRGLSGPYDDDYWGQGTQVTVSS	low polyreactivity
QVQLVESGGGLVQAGGSLRLSCAAYGSTFYAYAMGWYRQAPGKERELVAAITYRDARTYYADSVKGRFTISRDNAKNTVYLQMISLKPEDTAVYYCARKTGFTVRRYDYWGQGTQVTVSS	high polyreactivity
QVQLVESGGGLVQAGGSLRLSCAASGFTFYGNAMGWYRQAPGKERELVAAISGRGGSTYYADSVKGRFTISRDNAKNTVYLQMNSRKPEDTAVYYCNKRGPYRWYSAPYGYWGQGTQVTVSS	low polyreactivity

Sequence	polyreactivity (PSR sort gate)
QVQRVESGGGLVQAGGSLRLSCAASGLTFRRYGMGWYRQAPGKEREWVASISSRGGNTYYADSVKGRLTISRDKAKNTVYLQMNSRKPEETAVYYCAARHVLYGYYLYDYWGQGTQVTVSS	high polyreactivity
QVQLVESGGGLVQAGGSLRLSCAASGRISFRILWDGIDRRLGKKGSWLPLLTNTGSTNYADSVKGRFTISRDNAKNTVYLQIHSLKPEDTAVYDCNADPTGGSSYPAYFEYDYWGQGTQVTVSS	low polyreactivity
QVQLVESGGGLVQAGGSLRLSCAASGIIIARNTMGWYRQAPGKERELVAAISTRGTTTYYADSVKGRFTISRDNAENTVYLQMNSLKPEDTAVYYCAAVRVHTDRYNYWGQGTQVTVSS	high polyreactivity
QVQLVESGGGLVQAGGSLRLSCAASGRIFSTYALGWYRQAPGKERELVAAISYSGASTYYADSVKGRFTISRDNAKNTVYLQIKSMKPEDTAVYYCAKATYPHEYDYWGQGTQVTVSS	low polyreactivity
QVQLVESWGGLVQAGGSLRLSCAASGRTSGNYAMGWYRQAPGKERELVAAIRYSGSSTFYADSVKGRFTISRDNAKNTVYLQMNSLKPEDTAVYYCARDIRRKGFRYDYWGQGTQVNVSS	high polyreactivity
QVQLVESGGGLVQAGGSLRLSCAASGSIFYSNAMGLSRQAPGKEREWVATITSGDSTNYADSVKGRFTISRDNAKNTVYLQMNSLKPEDTAVYYCAADSSLYEWFDWPWERGQSVESWGQGTQVTVSS	low polyreactivity
QVQLVESGGGLVQAGGSLRLSCAASGSIFADYTMGWYRQAPGKERELVAAITSGGSTYYADSVKGRFTISRDNAKNTVYLQMNSLKPEDTAVYYCAAYYGGRGYWGQGTQVTVSS	low polyreactivity
QVQLVESGGGLVQAGGSLRLSCAASGLIFHYYAMGWYRQAPGKERELVAAISSGGSTNYADSVKGRFTISRDNAKNTVYLQMNSLKPLDTAVYYCAARSGARRGNVYVYYEYYYWGQGTQVTVSS	low polyreactivity
QVQLVESGGGLVQAGGSLRLSCAASGSTYRYYDMGWYRQAPGKERELVAAITWSGGTTYYADSVKGRFTISRDNAKNTVYLQMNSLKPEDTAVYYCAADSVLTPYDYWGQGTQVTVSS	low polyreactivity
QVQLVESGGGLVQAGGSLRLSCAASGFTFRSYAMGWYRQAPGKERELVAGITWRGGRTYYADSVKGRFTISRDNAKNTVYLQMNSLKPEDTAVYYCAVRNASKNRKYYYWGQGTQVTVSS	high polyreactivity
QVQLVESGGGLVQAGGSLRLSCAASGRTFARYVMGWYRQAPGKERELVAAINSGGTTYYADSVKGRFTISRDNAKNTVYLQMNSLKPEDTAVYYCNARRGHYAYDYWGQGTQVTLSS	high polyreactivity
QVQLVESVGGLVQAGGSLRLSCAASGSIFSPYAMGWYRQAPGKERELVAGISRDGSTYYADSVKGRFTISRDNAKNTVYLQMNSMKPEDTAVYYCAATEFRYFEGGAYFEGYYWGQGTQVTVSS	low polyreactivity
QVQLVDSGGGLVQAGGSLRLSCAASGFIFVRYAMGWYRQAPGKERELVAAISWSGARTYYADSVKGRFTISRDNAKNTVYLQFNSLKPEDSAVYYCAADSLDAGYYGYDYWGQGTQVGVSS	high polyreactivity
QVHLVESGGGLVQAGGSLRLSLAASGSIFHPYAMGWYRQAPGKERELVAAISKSGGNTYYADSVKGRFTISRDNAKNNVYLQMNSLKPVDPEVYYCAALDYWGQGTKVTVSS	low polyreactivity
QEQLQESGGGQVQAGGSLLLSCAASGNIIRYYYMGWYRQAPGKERELVAAITYGTSTNYADSVKGRFTISRDNAINTVYLQMNSLKPEDTAVYYCAVDVNYGDPLDNWGQGTQVTVSS	high polyreactivity
QVQLVESGGGLVQAGGSLRLSCAASGSTFKLNAMGWYRQAPGKERELLASISTGASTNYADSVKGRFTISLDNAKNTVYVQMNSLNPEDTAVYYCAAQYPFAGYYITQYEYDYWGQGTQVTVSS	low polyreactivity
QVQLVESGGGLVQAGGSLRLSCAASGRTFGRYAMGWYRQAPGKERELVAAISWSGGSTNYADSVKGRFTISRDNAKNTVYLQMISLKPEDTAVYYCAAVTTDGVYAFDYWGQGTQVTVSS	low polyreactivity
QVQLVDSGGGLVQAGGSLRLSCAAAGSNLSQYAMGWYRQAPGKERELVAAITYGGGSTYYADSVKGRFTISRDNAKKTVHIQMISLKPEDPAVYYCALEFTYWGDPYDYWGQGTQVTVSS	low polyreactivity
EVQLVESGGGLVQPGGSLRLSCEASGYIYSRYRMGWYRQAPGKAREFVAAISGGSSTNYADSVKGRFTISRDNSKNTVYLQMNSLRAEDTAVYYCAAYKIDSDPRVYWGQGTQVTVSS	low polyreactivity
QVQLVESGGGLVQAGGSLRLSCAASGRTFFCYAMGWYRQAPGKERELVAAITYRGGGTYYADSVKGRFTISRDNAKNTVNLQMNSLKPEDTAVYYCAAEYWVGVYLYDYWGQGTQVTVSS	high polyreactivity
KVQLVESGGGLVQAGGSLRISCAASGGIFAYNAMGWYRQAPGKEMELVASITSGGNTYYADSVKGRFTISRDNAKNTFYLQMNSLKPEDTAVYYCNARFYRSWRRYSREPGYNYWGQGTQVTVSS	high polyreactivity

Source: the nanobody polyreactivity screen of Harvey et al. (2022)
